Results on seven molecules are retold here after PMC10588359, “14‐3‐3 protein inhibits CaMKK1 by blocking the kinase active site with its last two C‐terminal helices” (Protein Science : A Publication of the Protein Society, 2023).

One may read the stoichiometry N as the number of molecules, sites or subunits per partner or assembly.

B1: Human 14‐3‐3γ (residues 1–235 lacking the C‐terminal 12‐residues‐long flexible tail) (domain or fragment, UniProt P61981 1-235, looked up)
chain: MVDREQLVQKARLAEQAERYDDMAAAMKNVTELNEPLSNEERNLLSVAYKNVVGARRSSWRVISSIEQKTSADGNEKKIEMVRAYREKIEKELEAVCQDVLSLLDNYLIKNCSETQYESKVFYLKMKGDYYRYLAEVATGEKRATVVESSEKAYSEAHEISKEHMQPTHPIRLGLALNYSVFYYEIQNAPEQACHLAKTAFDDAIAELDTLNEDSYKDSTLIMQLLRDNLTLWTS
notes: human 14-3-3γ, residues 1-235, lacking the C-terminal 12 residues; Homodimer; also called 14-3-3γ dimer; source: expressed and purified as described previously (Obsilova et al., 2004)
B5: pCaMKK1: CaMKK1_(67–480) D293A phosphorylated by PKA at all four sites (domain or fragment, human, UniProt Q8N5S9 67-480, looked up)
chain: SLSARKLSLQERPAGSYLEAQAGPYATGPASHISPRAWRRPTIESHHVAISDAEDCVQLNQYKLQSEIGKGAYGVVRLAYNESEDRHYAMKVLSKKKLLKQYGFPRRPPPRGSQAAQGGPAKQLLPLERVYQEIAILKKLDHVNVVKLIEVLDDPAEDNLYLVFDLLRKGPVMEVPCDKPFSEEQARLYLRDVILGLEYLHCQKIVHRDIKPSNLLLGDDGHVKIAAFGVSNQFEGNDAQLSSTAGTPAFMAPEAISDSGQSFSGKALDVWATGVTLYCFVYGKCPFIDDFILALHRKIKNEPVVFPEEPEISEELKDLILKMLDKNPETRIGVPDIKLHPWVTKNGEEPLPSEEEHCSVVEVTEEEVKNSVRLIPSWTTVILVKSMLRKRSFGNPFEPQARREERSMSAPGNL
modifications: phosphoserine at 74, phosphothreonine at 108, phosphoserine at 458, phosphoserine at 475 (PKA; stoichiometric by LC-MS)
notes: Same construct as m1 after PKA phosphorylation; also called phosphorylated CaMKK1; source: E. coli BL21 (DE3), purified, phosphorylated by PKA in vitro, SEC
B6: pCaMKK2: CaMKK2_(93–517) D330A phosphorylated by PKA at all four sites (domain or fragment, human, UniProt Q96RR4 93-517, looked up)
chain: HLSGRKLSLQERSQGGLAAGGSLDMNGRCICPSLPYSPVSSPQSSPRLPRRPTVESHHVSITGMQDCVQLNQYTLKDEIGKGSYGVVKLAYNENDNTYYAMKVLSKKKLIRQAGFPRRPPPRGTRPAPGGCIQPRGPIEQVYQEIAILKKLDHPNVVKLVEVLDDPNEDHLYMVFELVNQGPVMEVPTLKPLSEDQARFYFQDLIKGIEYLHYQKIIHRDIKPSNLLVGEDGHIKIAAFGVSNEFKGSDALLSNTVGTPAFMAPESLSETRKIFSGKALDVWAMGVTLYCFVFGQCPFMDERIMCLHSKIKSQALEFPDQPDIAEDLKDLITRMLDKNPESRIVVPEIKLHPWVTRHGAEPLPSEDENCTLVEVTEEEVENSVKHIPSLATVILVKTMIRKRSFGNPFEGSRREERSLSAPGNLL
modifications: phosphoserine at 100, phosphothreonine at 145, phosphoserine at 495, phosphoserine at 511 (PKA; stoichiometric by LC-MS)
notes: Same construct as m3 after PKA phosphorylation; also called phosphorylated CaMKK2; source: E. coli BL21 (DE3), purified, phosphorylated by PKA in vitro, SEC

Series [1] deals with the molecule itself. The series can be described thus: SEC-SAXS; in-line SEC-SAXS on Superdex 200 Increase 5/150 GL; complexes mixed at 1:2 molar ratio (pCaMKK:14-3-3γ); 50 mM Tris–HCl pH 7.5, 150 mM NaCl, 1 mM TCEP, 3% glycerol. For orientation: Size exclusion chromatography separates by hydrodynamic size, large species first.
In series [2] the target is B5. The series can be described thus: AUC; sedimentation velocity of mixtures of 0.06–6 μM pCaMKK1 or pCaMKK2 with 1.2 μM 14-3-3γ; direct modeling with the Lamm equation, Langmuir binding model, one pCaMKK on a 14-3-3γ homodimer; apparent KD; 50 mM Tris–HCl pH 7.5, 150 mM NaCl, 1 mM TCEP; 20°C. Conditions: both partners purified.
Series [3] addresses B6. Described as above. The settings on record: both partners purified.
Series [4] addresses T1, dansyl-labeled calmodulin (DANS-CaM), Ca2+-bound (rat, UniProt P0DP29 1-149, dansyl label (dansyl chloride; site not stated)).
T1 construct: rat calmodulin (CaM); The assay buffer held 1 mM CaCl2 (Ca2+/CaM); also called dansyl-Ca2+/CaM; source: prepared as described previously (Holakovska et al., 2011); labeled with dansyl chloride, SEC
The series can be described thus: fluorescence polarisation; 2 μM DANS-CaM titrated with CaMKK (30 μM and binary dilution series), 1 h incubation; 10 mM HEPES-NaOH pH 7.4, 150 mM NaCl, 1 mM CaCl2, 0.1% Tween 20, 0.1% BSA; one-site-binding model. The settings on record: both partners purified. In general terms: In fluorescence polarisation assays a small probe gives low polarisation when free and higher when bound to something large.

The target in series [5] is T1, dansyl-labeled calmodulin (DANS-CaM), …. The series is described as follows: fluorescence polarisation; as a1 but with 60 μM 14-3-3γ present: 2 μM DANS-CaM titrated with CaMKK (30 μM and binary dilution series), 1 h incubation; 10 mM HEPES-NaOH pH 7.4, 150 mM NaCl, 1 mM CaCl2, 0.1% Tween 20, 0.1% BSA; one-site-binding model. The settings on record: both partners purified.

The target of series [6] is T2, Rat calmodulin, Ca^2+-bound (Ca^2+/CaM) (rat, UniProt P0DP29 1-149).
T2 construct: rat calmodulin; Unlabelled CaM, used with 1 mM CaCl2 in the ultracentrifuge; source: prepared as described previously (Holakovska et al., 2011)
The series can be described thus: AUC; sedimentation velocity of CaMKK1 or CaMKK2 with Ca^2+/CaM (1:1 molar ratio); 50 mM Tris–HCl pH 7.5, 150 mM NaCl, 1 mM TCEP, 1 mM CaCl2; 20°C. The settings on record: both partners purified.

The target in series [7] is B1. The series can be described thus: AUC; sedimentation velocity of mixtures of 0.06–6 μM pCaMKK1 or pCaMKK2 with 1.2 μM 14-3-3γ; direct modeling with the Lamm equation, Langmuir binding model, one pCaMKK on a 14-3-3γ homodimer; apparent KD; 50 mM Tris–HCl pH 7.5, 150 mM NaCl, 1 mM TCEP; 20°C. The settings on record: both partners purified.
The target of series [8] is T3, Dansyl‐labeled rat calmodulin (DANS‐CaM), Ca^2+-bound (rat, UniProt P0DP29 1-149, dansyl label (dansyl chloride; site not stated)).
T3 construct: rat calmodulin, labeled with dansyl chloride; Assays in 1 mM CaCl2; also called dansyl-Ca^2+/CaM; DANS-labeled CaM; source: prepared as described previously (Holakovska et al., 2011), labeled by dansyl chloride, SEC
The series is described as follows: fluorescence polarisation; 2 μM DANS-CaM titrated by 30 μM CaMKK proteins and their binary dilution series, with and without 60 μM 14-3-3γ; 10 mM HEPES–NaOH pH 7.4, 150 mM NaCl, 1 mM CaCl2, 0.1% Tween 20, 0.1% BSA; one-site-binding model. Conditions: both partners purified.

For the molecule B1, the “stoichiometry N” value in series [1] came out at 2. Besides, the Kd was found to be 21 ± 3 nM in series [2] and 60 ± 15 nM in series [3].

B2: CaMKK1(67-480) D293A, unphosphorylated (domain or fragment)
chain: SLSARKLSLQERPAGSYLEAQAGPYATGPASHISPRAWRRPTIESHHVAISDAEDCVQLNQYKLQSEIGKGAYGVVRLAYNESEDRHYAMKVLSKKKLLKQYGFPRRPPPRGSQAAQGGPAKQLLPLERVYQEIAILKKLDHVNVVKLIEVLDDPAEDNLYLVFDLLRKGPVMEVPCDKPFSEEQARLYLRDVILGLEYLHCQKIVHRDIKPSNLLLGDDGHVKIAAFGVSNQFEGNDAQLSSTAGTPAFMAPEAISDSGQSFSGKALDVWATGVTLYCFVYGKCPFIDDFILALHRKIKNEPVVFPEEPEISEELKDLILKMLDKNPETRIGVPDIKLHPWVTKNGEEPLPSEEEHCSVVEVTEEEVKNSVRLIPSWTTVILVKSMLRKRSFGNPFEPQARREERSMSAPGNL
notes: source: E. coli BL21 (DE3), purified
Take B2: the Kd turned out to be 600 ± 110 nM in series [4] and 630 ± 70 nM in series [5].

B3: CaMKK1_(67–480) D293A, unphosphorylated (domain or fragment)
chain: SLSARKLSLQERPAGSYLEAQAGPYATGPASHISPRAWRRPTIESHHVAISDAEDCVQLNQYKLQSEIGKGAYGVVRLAYNESEDRHYAMKVLSKKKLLKQYGFPRRPPPRGSQAAQGGPAKQLLPLERVYQEIAILKKLDHVNVVKLIEVLDDPAEDNLYLVFDLLRKGPVMEVPCDKPFSEEQARLYLRDVILGLEYLHCQKIVHRDIKPSNLLLGDDGHVKIAAFGVSNQFEGNDAQLSSTAGTPAFMAPEAISDSGQSFSGKALDVWATGVTLYCFVYGKCPFIDDFILALHRKIKNEPVVFPEEPEISEELKDLILKMLDKNPETRIGVPDIKLHPWVTKNGEEPLPSEEEHCSVVEVTEEEVKNSVRLIPSWTTVILVKSMLRKRSFGNPFEPQARREERSMSAPGNL
notes: Cloned into pRSFDuet-1; purification as in Psenakova et al., 2018; also called Ca^2+/CaM-dependent protein kinase kinase 1; Not-P CaMKK1; source: E. coli BL21 (DE3), purified
Turning to B3, in series [6], the “stoichiometry N” value turned out to be 1.

B4: pCaMKK1: CaMKK1(67-480) D293A phosphorylated by PKA at four sites (domain or fragment)
chain: SLSARKLSLQERPAGSYLEAQAGPYATGPASHISPRAWRRPTIESHHVAISDAEDCVQLNQYKLQSEIGKGAYGVVRLAYNESEDRHYAMKVLSKKKLLKQYGFPRRPPPRGSQAAQGGPAKQLLPLERVYQEIAILKKLDHVNVVKLIEVLDDPAEDNLYLVFDLLRKGPVMEVPCDKPFSEEQARLYLRDVILGLEYLHCQKIVHRDIKPSNLLLGDDGHVKIAAFGVSNQFEGNDAQLSSTAGTPAFMAPEAISDSGQSFSGKALDVWATGVTLYCFVYGKCPFIDDFILALHRKIKNEPVVFPEEPEISEELKDLILKMLDKNPETRIGVPDIKLHPWVTKNGEEPLPSEEEHCSVVEVTEEEVKNSVRLIPSWTTVILVKSMLRKRSFGNPFEPQARREERSMSAPGNL
modifications: phosphoserine at 74, phosphothreonine at 108, phosphoserine at 458, phosphoserine at 475
notes: also called 4xPhosphorylated CaMKK1; source: E. coli BL21 (DE3), purified; phosphorylated with PKA, then SEC
B4: the Kd in series [4] came to 2160 ± 300 nM. For B5, the “stoichiometry N” value in series [7] is 2 14-3-3γ protomers per pCaMKK. Turning to B6, the binding result in series [8] is on record as “binds”. In addition, the “stoichiometry N” value in series [7] is 2 14-3-3γ protomers per pCaMKK.

B7: CaMKK2_(93–517) D330A, unphosphorylated (domain or fragment)
chain: HLSGRKLSLQERSQGGLAAGGSLDMNGRCICPSLPYSPVSSPQSSPRLPRRPTVESHHVSITGMQDCVQLNQYTLKDEIGKGSYGVVKLAYNENDNTYYAMKVLSKKKLIRQAGFPRRPPPRGTRPAPGGCIQPRGPIEQVYQEIAILKKLDHPNVVKLVEVLDDPNEDHLYMVFELVNQGPVMEVPTLKPLSEDQARFYFQDLIKGIEYLHYQKIIHRDIKPSNLLVGEDGHIKIAAFGVSNEFKGSDALLSNTVGTPAFMAPESLSETRKIFSGKALDVWAMGVTLYCFVFGQCPFMDERIMCLHSKIKSQALEFPDQPDIAEDLKDLITRMLDKNPESRIVVPEIKLHPWVTRHGAEPLPSEDENCTLVEVTEEEVENSVKHIPSLATVILVKTMIRKRSFGNPFEGSRREERSLSAPGNLL
notes: also called Ca^2+/CaM-dependent protein kinase kinase 2; Not-P CaMKK2; source: E. coli BL21 (DE3), purified
Regarding B7, the “stoichiometry N” value in series [6] amounted to 1.
